Reference: PMC7616783, “A combined structural and biochemical approach reveals translocation and stalling of UvrB on the DNA lesion as a mechanism of damage verification in bacterial nucleotide excision repair” (DNA repair, 2019)

B1: Thermotoga maritima UvrA (natural protein)
chain: MNEIVVKGARVHNLKNITVRIPKNRLVVITGVSGSGKSSLAMDTIYAEGQRRYLESLSTYARQFLGNLKKPDVDEIEGLSPAIAIDQKTVSHNPRSTVGTVTEIYDYLRVLYARIGKAHCPECGRPLEKKSIDEILQDLFNSFKEGSRIYILAPVATEKKGTFKKEIEEFISKGFARIEIDGEIYRLEEVPELDKNKRHTVKLVVDRLILETRNEHRILDSLELAMREGKGFVEIRNVDTGESKIFSENLMCPVCGIGFPEITPKLFSFNSPYGACPNCHGLGFTFEVDPSLVIDEEKSVLEGAIIPYRWDRRLSRWVAREIEKRGVSPHLPFKDLPEDVKEFILYGDDRFEGVVPKVQRWHRETESPEMKEWLEKNFIVQRTCSVCGGRRLNREALSVKINGLNIHEFTELSISEELEFLKNLNLTEREREIVGELLKEIEKRLEFLVDVGLEYLTLSRSATTLSGGESQRIRLATQIGSGLTGVIYVLDEPTIGLHPRDTERLIKTLKKLRDLGNTVIVVEHDEEVIRNADHIIDIGPGGGTNGGRVVFQGTVDELLKNPDSSLTGEYLSGKRKITVNKTRRLPYASLKIKGVRHNNLKNIDVEIPLGVFVCVTGVSGSGKSSLVMETLYPALMNLLHKTKLPAGEFDSIEGHENIDKMIAIDQSPIGRTPRSNPATYTKVFDEIRSLFAMTPAAKARGYNKSRFSFNLKGGRCEACQGQGYVKIEMLFLPDVYVECDVCKGKRYNRETLEITYKGKNISDILDMTVDEALEFFKNIPSIKRTLQVLHDVGLGYVKLGQPATTLSGGEAQRIKLASELRKRDTGRTLYILDEPTVGLHFEDVRKLVEVLHRLVDRGNTVIVIEHNLDVIKNADHIIDLGPEGGKEGGYIVATGTPEEIAKNPHSYTGRFLKNVL
notes: UvrA, Thermotoga maritima; theoretical MW of the dimer printed as 205.8 kDa; the modelling section counts residues 1-916; In the assays it stood with fluorescein-modified DNA, ADP and Mg2+; also called Tm-UvrA; T. maritima (Tm) UvrA; source: BL21 STAR (DE3), pET28-SUMO based plasmid, purified (nickel resin, Ulp1 digestion, nickel resin, gel filtration)

Legend:
[1] = biological target: the molecule itself; assay: SEC-MALS; UvrA dimer (2.5 mg/ml) mixed 1:1 with self-annealed DNA (32 bp ds region, two fluorescein-modified thymines, 10 nt 5' overhangs), UvrB at two-fold molar excess over the UvrA dimer; dialysed at 4 °C against 20 mM HEPES pH 7.0, 150 mM NaCl, 5% glycerol, 1 mM DTT, 10 mM MgCl2; 1 mM ADP added; BioSuite High Resolution SEC column with MALS detector
Thermotoga maritima UvrA = biological target: B1; assay: as above; settings: both partners purified

Row | Binder | stoichiometry N [1] | stoichiometry N (Thermotoga maritima UvrA)
1 | B1 | 2 | 
2 | Thermus thermophilus UvrB (natural protein, UniProt Q56243 1-665, looked up, theoretical MW printed as 76.2 kDa; Two UvrB monomers stand in the complex, one on each side of the UvrA dimer; The complex is heterologous (T. maritima UvrA with T. thermophilus UvrB); also called Tt-UvrB; Thermus thermophilus (Tt) UvrB; source: BL21-CodonPlus(DE3)-RIL, pET28 based plasmid, purified (nickel resin, HRV 3C digestion, nickel resin, gel filtration)) MTFRYRGPSPKGDQPKAIAGLVEALRDGERFVTLLGATGTGKTVTMAKVIEALGRPALVLAPNKILAAQLAAEFRELFPENAVEYFISYYDYYQPEAYVPGKDLYIEKDASINPEIERLRHSTTRSLLTRRDVIVVASVSAIYGLGDPREYRARNLVVERGKPYPREVLLERLLELGYQRNDIDLSPGRFRAKGEVLEIFPAYETEPIRVELFGDEVERISQVHPVTGERLRELPGFVLFPATHYLSPEGLEEILKEIEKELWERVRYFEERGEVLYAQRLKERTLYDLEMLRVMGTCPGVENYARYFTGKAPGEPPYTLLDYFPEDFLVFLDESHVTVPQLQGMYRGDYARKKTLVDYGFRLPSALDNRPLRFEEFLERVSQVVFVSATPGPFELAHSGRVVEQIIRPTGLLDPLVRVKPTENQILDLMEGIRERAARGERTLVTVLTVRMAEELTSFLVEHGIRARYLHHELDAFERQALIRDLRLGHYDCLVGINLLREGLDIPEVSLVAILDADKEGFLRSERSLIQTIGRAARNARGEVWLYADRVSEAMQRAIEETNRRRALQEAYNLEHGITPETVRKEVRAVIRPEGYEEAPLEADLSGEDLRERIAELELAMWQAAEALDFERAARLRDEIRALEARLQGVRAPEPVPGGRKRKRR |  | 2 UvrB per UvrA dimer
